From US20040053347A1

Target: BRCA2 protein, endogenous in cell extracts (human) (UniProt P51587)
Test: estimate from co-immunoprecipitation with anti-BRCA2 antibodies

UniProt P51587, sequence (P51587 whole entry): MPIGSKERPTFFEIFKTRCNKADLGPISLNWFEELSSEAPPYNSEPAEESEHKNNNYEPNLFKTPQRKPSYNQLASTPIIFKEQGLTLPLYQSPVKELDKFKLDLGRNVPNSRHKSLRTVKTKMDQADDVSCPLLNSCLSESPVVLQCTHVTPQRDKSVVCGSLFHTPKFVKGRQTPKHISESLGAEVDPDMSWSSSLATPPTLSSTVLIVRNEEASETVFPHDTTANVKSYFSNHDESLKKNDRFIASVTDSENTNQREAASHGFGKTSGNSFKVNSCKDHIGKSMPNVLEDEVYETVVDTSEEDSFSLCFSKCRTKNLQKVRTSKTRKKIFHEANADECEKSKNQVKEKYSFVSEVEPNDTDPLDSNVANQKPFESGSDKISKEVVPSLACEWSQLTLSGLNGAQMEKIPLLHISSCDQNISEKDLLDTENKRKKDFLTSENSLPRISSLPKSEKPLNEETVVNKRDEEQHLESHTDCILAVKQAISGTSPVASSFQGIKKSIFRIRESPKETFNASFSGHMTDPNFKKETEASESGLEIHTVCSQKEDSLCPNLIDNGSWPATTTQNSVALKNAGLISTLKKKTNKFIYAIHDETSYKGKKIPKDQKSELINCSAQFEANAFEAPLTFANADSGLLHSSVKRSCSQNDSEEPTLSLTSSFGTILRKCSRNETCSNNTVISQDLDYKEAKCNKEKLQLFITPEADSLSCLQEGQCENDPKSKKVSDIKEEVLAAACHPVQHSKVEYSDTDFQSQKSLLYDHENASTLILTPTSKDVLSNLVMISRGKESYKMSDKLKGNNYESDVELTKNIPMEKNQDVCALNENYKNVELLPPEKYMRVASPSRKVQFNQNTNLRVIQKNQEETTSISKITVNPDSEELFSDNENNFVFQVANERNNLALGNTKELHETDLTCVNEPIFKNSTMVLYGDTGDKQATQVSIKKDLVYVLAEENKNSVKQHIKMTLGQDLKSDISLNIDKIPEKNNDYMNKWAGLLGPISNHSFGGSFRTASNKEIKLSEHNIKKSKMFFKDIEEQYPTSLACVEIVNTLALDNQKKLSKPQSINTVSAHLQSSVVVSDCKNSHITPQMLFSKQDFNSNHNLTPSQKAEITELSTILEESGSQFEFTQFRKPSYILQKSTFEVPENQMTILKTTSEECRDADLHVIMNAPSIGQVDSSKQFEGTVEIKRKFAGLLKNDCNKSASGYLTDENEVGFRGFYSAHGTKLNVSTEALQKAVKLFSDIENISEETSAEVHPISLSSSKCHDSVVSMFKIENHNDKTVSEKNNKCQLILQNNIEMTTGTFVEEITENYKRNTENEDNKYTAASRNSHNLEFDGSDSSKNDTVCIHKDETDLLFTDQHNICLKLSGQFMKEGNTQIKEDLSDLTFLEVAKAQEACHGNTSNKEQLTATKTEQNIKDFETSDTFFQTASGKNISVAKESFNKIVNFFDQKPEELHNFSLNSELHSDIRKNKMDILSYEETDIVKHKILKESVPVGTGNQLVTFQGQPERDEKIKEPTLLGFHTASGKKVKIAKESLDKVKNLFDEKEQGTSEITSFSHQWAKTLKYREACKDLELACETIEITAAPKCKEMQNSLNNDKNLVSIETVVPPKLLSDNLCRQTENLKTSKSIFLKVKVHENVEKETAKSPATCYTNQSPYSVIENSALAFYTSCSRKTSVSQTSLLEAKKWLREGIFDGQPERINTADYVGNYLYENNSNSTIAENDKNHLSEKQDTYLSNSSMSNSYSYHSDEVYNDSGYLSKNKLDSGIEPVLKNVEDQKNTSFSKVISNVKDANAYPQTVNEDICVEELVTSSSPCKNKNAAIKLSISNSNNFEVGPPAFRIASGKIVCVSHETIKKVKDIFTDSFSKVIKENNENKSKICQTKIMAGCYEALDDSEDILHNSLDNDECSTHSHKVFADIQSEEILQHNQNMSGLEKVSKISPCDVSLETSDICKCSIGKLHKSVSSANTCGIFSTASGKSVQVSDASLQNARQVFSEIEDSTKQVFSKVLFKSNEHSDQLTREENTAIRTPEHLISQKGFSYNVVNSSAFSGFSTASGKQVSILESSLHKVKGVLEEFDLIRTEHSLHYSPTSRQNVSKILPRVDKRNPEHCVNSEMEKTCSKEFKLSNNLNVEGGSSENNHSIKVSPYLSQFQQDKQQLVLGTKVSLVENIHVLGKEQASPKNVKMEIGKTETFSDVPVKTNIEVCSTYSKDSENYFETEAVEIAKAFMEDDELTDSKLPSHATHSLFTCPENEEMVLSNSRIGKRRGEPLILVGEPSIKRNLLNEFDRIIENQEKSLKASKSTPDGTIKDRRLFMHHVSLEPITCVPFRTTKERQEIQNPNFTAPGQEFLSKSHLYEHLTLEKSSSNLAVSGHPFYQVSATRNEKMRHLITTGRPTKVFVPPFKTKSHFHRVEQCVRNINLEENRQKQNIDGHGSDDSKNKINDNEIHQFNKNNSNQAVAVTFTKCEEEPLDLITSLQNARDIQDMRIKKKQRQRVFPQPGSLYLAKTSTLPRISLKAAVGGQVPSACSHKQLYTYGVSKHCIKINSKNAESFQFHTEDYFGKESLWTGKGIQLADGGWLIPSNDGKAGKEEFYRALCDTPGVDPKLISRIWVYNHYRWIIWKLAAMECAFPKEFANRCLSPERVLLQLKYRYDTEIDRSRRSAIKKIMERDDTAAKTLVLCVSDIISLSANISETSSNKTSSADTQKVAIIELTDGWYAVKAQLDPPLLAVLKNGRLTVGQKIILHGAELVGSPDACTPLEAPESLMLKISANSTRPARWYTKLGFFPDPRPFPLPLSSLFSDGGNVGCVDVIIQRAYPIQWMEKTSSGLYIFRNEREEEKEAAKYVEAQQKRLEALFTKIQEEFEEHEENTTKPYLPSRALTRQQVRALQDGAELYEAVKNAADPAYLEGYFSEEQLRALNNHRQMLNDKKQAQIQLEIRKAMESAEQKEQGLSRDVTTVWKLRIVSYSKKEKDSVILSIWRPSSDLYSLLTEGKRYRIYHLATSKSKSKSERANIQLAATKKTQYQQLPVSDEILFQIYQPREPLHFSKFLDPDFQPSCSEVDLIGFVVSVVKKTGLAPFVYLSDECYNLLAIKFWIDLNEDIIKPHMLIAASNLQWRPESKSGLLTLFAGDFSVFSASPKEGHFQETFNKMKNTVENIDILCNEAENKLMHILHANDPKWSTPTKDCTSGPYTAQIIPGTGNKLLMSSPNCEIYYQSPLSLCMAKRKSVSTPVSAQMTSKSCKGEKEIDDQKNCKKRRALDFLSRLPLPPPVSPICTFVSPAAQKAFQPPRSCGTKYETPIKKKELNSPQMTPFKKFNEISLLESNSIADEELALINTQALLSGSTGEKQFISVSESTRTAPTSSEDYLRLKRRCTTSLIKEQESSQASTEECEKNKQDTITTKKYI

- percent of endogenous BRAF35 present in the BRCA2 complex: 2 to 4%
Substance: BRAF35, endogenous protein in HeLa or MCF7 cell extracts
